Measurements from patent publication US20150344570A1 (published 2015).

T1: FcγRIIb extracellular domain with C-terminal His tag (human, UniProt P31994 43-217)
T1 construct: extracellular domain; Soluble receptor expressed in FreeStyle293 cells, used as analyte in Biacore; also called FcgRIIb; 2b; not shown: His tag attached to the C terminus
T1 sequence (looked up): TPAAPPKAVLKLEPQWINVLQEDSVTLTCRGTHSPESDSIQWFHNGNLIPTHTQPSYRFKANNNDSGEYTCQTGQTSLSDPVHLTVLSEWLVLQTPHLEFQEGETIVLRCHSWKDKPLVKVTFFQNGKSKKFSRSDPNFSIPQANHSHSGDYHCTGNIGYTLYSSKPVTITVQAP

B1: GpH7-A5/GpH7-B3 variant S267_10E/GpL16-k0 (antibody, human IgG1, kappa)
heavy 1: not shown
heavy 2: not shown
light: DIVMTQSPLSLPVTPGEPASISCQASESLVHSNRNTYLHWYLQKPGQSPQLLIYKVSNRFSGVPDRFSGSGSGTDFTLKISRVEAEDVGVYYCSQNTHVPPTFGQGTKVEIERTVAAPSVFIFPPSDEQLKSGTASVVCLLNNFYPREAKVQWKVDNALQSGNSQESVTEQDSKDSTYSLSSTLTLSKADYEKHKVYACEVTHQGLSSPVTKSFNRGEC
notes: Heterodimerized antibody (He Ab) with the mutation in only one H chain; also called He Ab S267E
B2: GpH7-A5/GpH7-B3 variant S267_14T/GpL16-k0 (antibody, human IgG1, kappa)
heavy 1: not shown
heavy 2: not shown
light: B1 light
notes: Heterodimerized antibody (He Ab) with the mutation in only one H chain; also called He Ab S267T
B3: GpH7-A5/GpH7-B3 variant S267_15Y/GpL16-k0 (antibody, human IgG1, kappa)
heavy 1: not shown
heavy 2: not shown
light: B1 light
notes: Heterodimerized antibody (He Ab) with the mutation in only one H chain; also called He Ab S267Y
B4: GpH7-A5/GpH7-B3 variant S267_16H/GpL16-k0 (antibody, human IgG1, kappa)
heavy 1: not shown
heavy 2: not shown
light: B1 light
notes: Heterodimerized antibody (He Ab) with the mutation in only one H chain; also called He Ab S267H
B5: GpH7-A5/GpH7-B3 variant S267_19Q/GpL16-k0 (antibody, human IgG1, kappa)
heavy 1: not shown
heavy 2: not shown
light: B1 light
notes: Heterodimerized antibody (He Ab) with the mutation in only one H chain; also called He Ab S267Q
B6: GpH7-A5/GpH7-B3 variant S267_20W/GpL16-k0 (antibody, human IgG1, kappa)
heavy 1: not shown
heavy 2: not shown
light: B1 light
notes: Heterodimerized antibody (He Ab) with the mutation in only one H chain; also called He Ab S267W
B7: GpH7-B3 variant S324_01G/GpL16-k0 (Ho Ab) (antibody, human IgG1, kappa)
heavy: not shown
light: B1 light
notes: Homodimerized anti-glypican-3 antibody; the alteration stands in both H chains
B8: GpH7-B3 variant S239_10E/GpL16-k0 (Ho Ab) (antibody, human IgG1, kappa)
heavy: not shown
light: B1 light
notes: Homodimerized anti-glypican-3 antibody; the alteration stands in both H chains (GpH7-B3 = GpH7-G1d with K439E)
B9: GpH7-B3 variant S239_18N/GpL16-k0 (Ho Ab) (antibody, human IgG1, kappa)
heavy: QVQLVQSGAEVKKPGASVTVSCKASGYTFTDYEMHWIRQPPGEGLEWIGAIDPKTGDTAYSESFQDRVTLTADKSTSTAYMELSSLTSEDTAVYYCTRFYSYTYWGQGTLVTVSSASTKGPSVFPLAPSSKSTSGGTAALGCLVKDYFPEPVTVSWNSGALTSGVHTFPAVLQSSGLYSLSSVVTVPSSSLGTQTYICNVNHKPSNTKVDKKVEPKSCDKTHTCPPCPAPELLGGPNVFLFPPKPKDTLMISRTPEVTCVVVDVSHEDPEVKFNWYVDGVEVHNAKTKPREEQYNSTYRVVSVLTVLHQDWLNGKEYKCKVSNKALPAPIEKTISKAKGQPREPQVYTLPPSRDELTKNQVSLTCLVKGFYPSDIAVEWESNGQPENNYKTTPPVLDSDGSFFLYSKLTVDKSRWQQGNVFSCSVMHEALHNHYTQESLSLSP
light: B1 light
notes: as for B7
B10: GpH7-B3 variant S298_03V/GpL16-k0 (Ho Ab) (antibody, human IgG1, kappa)
heavy: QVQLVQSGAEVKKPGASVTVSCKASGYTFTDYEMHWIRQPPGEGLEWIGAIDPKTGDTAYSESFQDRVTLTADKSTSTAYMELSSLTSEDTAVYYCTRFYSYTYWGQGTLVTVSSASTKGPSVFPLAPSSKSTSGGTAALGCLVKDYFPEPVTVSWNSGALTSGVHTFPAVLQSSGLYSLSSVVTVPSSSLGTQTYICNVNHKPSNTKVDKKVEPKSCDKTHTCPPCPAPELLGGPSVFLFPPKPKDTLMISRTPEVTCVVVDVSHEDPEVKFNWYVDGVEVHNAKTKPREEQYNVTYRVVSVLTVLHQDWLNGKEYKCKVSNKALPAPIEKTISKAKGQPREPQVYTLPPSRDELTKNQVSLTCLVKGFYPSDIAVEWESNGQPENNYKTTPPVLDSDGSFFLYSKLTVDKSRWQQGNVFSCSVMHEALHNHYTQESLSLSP
light: B1 light
notes: as for B7
B11: GpH7-B3 variant S324_06M/GpL16-k0 (Ho Ab) (antibody, human IgG1, kappa)
heavy: not shown
light: B1 light
notes: as for B7
B12: GpH7-B3 variant S324_09D/GpL16-k0 (Ho Ab) (antibody, human IgG1, kappa)
heavy: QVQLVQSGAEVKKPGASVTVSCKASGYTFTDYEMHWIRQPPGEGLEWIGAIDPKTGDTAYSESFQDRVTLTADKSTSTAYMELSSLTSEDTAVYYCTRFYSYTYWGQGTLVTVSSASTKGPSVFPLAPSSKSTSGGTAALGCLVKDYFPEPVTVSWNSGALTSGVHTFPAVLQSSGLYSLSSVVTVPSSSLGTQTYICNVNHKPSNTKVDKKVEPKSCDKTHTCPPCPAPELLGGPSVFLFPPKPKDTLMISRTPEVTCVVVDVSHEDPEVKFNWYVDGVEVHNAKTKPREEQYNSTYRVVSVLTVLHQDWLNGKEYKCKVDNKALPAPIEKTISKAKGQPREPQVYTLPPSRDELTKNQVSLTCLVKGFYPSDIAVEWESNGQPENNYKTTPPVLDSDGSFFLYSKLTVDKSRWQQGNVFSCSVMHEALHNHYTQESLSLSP
light: B1 light
notes: as for B7
B13: GpH7-B3 variant S324_14T/GpL16-k0 (Ho Ab) (antibody, human IgG1, kappa)
heavy: not shown
light: B1 light
notes: as for B7
B14: GpH7-B3 variant S324_20W/GpL16-k0 (Ho Ab) (antibody, human IgG1, kappa)
heavy: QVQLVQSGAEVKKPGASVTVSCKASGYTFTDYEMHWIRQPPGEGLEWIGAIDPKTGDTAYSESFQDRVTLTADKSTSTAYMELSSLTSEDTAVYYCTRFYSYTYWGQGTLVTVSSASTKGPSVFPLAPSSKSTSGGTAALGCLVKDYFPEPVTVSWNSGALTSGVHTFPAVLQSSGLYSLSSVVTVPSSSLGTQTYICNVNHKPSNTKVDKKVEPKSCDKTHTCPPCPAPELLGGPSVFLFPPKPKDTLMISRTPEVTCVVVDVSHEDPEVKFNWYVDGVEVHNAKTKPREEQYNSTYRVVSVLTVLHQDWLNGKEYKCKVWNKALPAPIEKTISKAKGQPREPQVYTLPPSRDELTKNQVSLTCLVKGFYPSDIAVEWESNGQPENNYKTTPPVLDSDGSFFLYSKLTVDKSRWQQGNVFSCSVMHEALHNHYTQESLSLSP
light: B1 light
notes: as for B7
B15: GpH7-B3 variant S337_01G/GpL16-k0 (Ho Ab) (antibody, human IgG1, kappa)
heavy: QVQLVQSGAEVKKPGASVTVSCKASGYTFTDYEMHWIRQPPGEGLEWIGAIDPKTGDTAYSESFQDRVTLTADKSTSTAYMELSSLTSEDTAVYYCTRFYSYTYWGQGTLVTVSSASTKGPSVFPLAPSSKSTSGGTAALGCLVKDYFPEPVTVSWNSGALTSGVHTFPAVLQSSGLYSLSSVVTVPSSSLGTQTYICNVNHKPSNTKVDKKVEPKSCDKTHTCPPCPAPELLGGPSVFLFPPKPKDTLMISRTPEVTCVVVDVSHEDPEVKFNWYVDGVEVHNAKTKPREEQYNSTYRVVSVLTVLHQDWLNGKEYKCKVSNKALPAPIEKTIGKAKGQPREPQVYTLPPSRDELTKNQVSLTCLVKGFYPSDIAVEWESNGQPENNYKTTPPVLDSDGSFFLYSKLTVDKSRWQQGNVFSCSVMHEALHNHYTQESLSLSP
light: B1 light
notes: as for B7
B16: GpH7-B3 variant S337_16H/GpL16-k0 (Ho Ab) (antibody, human IgG1, kappa)
heavy: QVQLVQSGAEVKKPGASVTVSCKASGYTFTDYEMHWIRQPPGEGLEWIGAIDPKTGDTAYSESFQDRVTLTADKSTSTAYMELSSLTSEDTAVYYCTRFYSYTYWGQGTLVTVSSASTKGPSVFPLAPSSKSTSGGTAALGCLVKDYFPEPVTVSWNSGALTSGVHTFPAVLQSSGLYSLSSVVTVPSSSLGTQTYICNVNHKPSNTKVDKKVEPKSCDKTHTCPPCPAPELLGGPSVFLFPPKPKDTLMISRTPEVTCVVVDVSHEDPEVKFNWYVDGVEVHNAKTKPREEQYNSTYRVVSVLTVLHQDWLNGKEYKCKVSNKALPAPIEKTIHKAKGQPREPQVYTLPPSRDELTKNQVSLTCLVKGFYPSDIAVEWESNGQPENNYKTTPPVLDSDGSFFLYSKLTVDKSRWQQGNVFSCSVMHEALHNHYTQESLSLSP
light: B1 light
notes: as for B7
B17: GpH7-B3 variant T335_05P/GpL16-k0 (Ho Ab) (antibody, human IgG1, kappa)
heavy: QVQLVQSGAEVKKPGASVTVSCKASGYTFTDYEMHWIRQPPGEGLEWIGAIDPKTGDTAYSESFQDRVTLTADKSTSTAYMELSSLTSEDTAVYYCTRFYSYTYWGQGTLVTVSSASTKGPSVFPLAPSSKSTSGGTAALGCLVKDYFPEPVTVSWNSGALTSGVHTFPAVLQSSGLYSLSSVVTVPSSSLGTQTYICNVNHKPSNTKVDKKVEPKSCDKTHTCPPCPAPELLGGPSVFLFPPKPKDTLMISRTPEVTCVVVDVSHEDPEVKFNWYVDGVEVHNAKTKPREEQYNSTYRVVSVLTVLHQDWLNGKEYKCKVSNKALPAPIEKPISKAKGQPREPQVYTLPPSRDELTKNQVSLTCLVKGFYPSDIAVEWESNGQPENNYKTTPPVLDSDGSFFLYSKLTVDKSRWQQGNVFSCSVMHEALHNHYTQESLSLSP
light: B1 light
notes: as for B7
B18: GpH7-B3 variant T335_06M/GpL16-k0 (Ho Ab) (antibody, human IgG1, kappa)
heavy: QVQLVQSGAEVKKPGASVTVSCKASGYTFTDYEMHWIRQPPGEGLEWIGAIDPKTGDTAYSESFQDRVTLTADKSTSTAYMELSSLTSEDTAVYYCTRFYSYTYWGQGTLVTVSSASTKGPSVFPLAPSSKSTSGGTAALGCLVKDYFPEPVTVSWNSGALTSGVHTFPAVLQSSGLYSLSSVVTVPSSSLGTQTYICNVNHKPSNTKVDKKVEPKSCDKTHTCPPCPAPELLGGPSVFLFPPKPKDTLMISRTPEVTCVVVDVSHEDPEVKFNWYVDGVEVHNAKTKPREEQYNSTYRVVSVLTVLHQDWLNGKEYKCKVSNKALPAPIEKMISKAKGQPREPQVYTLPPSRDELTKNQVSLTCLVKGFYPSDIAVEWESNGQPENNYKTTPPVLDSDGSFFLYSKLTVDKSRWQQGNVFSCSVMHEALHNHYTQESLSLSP
light: B1 light
notes: as for B7
B19: GpH7-B3 variant T335_08L/GpL16-k0 (Ho Ab) (antibody, human IgG1, kappa)
heavy: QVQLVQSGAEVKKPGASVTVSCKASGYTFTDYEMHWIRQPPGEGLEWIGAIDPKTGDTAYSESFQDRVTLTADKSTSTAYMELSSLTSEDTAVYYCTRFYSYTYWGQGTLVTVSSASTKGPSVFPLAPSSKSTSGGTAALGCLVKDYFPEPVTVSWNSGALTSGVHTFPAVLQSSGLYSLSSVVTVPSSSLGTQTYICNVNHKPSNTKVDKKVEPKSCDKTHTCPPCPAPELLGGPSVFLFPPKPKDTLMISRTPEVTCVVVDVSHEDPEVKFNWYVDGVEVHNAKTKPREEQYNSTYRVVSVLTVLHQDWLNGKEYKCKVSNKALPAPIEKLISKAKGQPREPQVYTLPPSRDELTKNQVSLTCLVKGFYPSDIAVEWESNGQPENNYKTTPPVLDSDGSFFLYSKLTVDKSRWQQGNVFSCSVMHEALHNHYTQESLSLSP
light: B1 light
notes: as for B7
B20: GpH7-B3 variant T335_09D/GpL16-k0 (Ho Ab) (antibody, human IgG1, kappa)
heavy: not shown
light: B1 light
notes: as for B7
B21: GpH7-B3 variant Y296_20W/GpL16-k0 (Ho Ab) (antibody, human IgG1, kappa)
heavy: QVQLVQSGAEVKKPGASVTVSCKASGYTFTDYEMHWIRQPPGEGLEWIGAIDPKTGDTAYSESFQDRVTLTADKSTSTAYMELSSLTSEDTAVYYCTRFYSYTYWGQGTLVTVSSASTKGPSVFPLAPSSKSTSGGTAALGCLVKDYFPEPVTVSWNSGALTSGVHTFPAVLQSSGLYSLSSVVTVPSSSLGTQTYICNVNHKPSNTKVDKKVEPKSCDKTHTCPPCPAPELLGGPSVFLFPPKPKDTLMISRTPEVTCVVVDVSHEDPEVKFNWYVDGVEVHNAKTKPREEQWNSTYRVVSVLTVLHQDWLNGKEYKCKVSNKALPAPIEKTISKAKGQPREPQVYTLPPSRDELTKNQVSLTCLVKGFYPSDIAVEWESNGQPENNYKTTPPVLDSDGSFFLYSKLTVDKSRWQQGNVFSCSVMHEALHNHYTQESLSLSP
light: B1 light
notes: as for B7
B22: GpH7-B3 variant Y300_08L/GpL16-k0 (Ho Ab) (antibody, human IgG1, kappa)
heavy: not shown
light: B1 light
notes: as for B7

Target: T2, FcγRIIIa extracellular domain with C-terminal His tag (human, UniProt P08637 17-208)
T2 construct: extracellular domain; also called FcgRIIIa; 3a; not shown: His tag attached to the C terminus
T2 sequence (P08637 17-208): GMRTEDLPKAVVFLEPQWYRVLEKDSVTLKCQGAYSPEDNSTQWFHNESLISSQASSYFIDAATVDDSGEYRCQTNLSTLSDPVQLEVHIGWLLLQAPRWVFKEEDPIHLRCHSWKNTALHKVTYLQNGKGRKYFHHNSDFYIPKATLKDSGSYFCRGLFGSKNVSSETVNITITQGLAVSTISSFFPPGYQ
Experiment: SPR (Biacore); He/Con_3a (FcγRIIIa) divided by He/Con_2b (FcγRIIb)

First: B1
Second: B2
The “He_3a/2b (IIIa/IIb)” value of the first is lower: 0.24 ratio for the first, 0.44 ratio for the second.

Going from B3 to B4, the “He_3a/2b (IIIa/IIb)” value falls from 0.31 ratio to 0.27 ratio.

Going from B5 to B6, the “He_3a/2b (IIIa/IIb)” value rises from 0.3 ratio to 0.37 ratio.

Target: T2, FcγRIIIa extracellular domain with …
Experiment: SPR (Biacore T100), antibody captured on antigen peptide chip, FcγR as analyte
Method: (§1) Analysis of interaction between objective antibody and the FcγR was carried out using Biacore T100 (GE Healthcare). HBS-EP+ (GE Healthcare) was used as the running buffer, and the measurement temperature was set to 25° C. Chips produced by immobilizing the antigen peptide by the amine coupling method to a Series S Sencor Chip CM5 (GE Healthcare), or alternatively, chips produced by allowing preliminarily biotinylated antigen peptides to interact with and immobilize onto a Series S Sensor Chip SA (certified) (GE Healthcare) were used. Antibodies of interest were captured onto an antigen peptide-immobilized chip, and allowed to interact to each FcγR diluted with running buffer. To regenerate and repeatedly use the chip, the antibodies captured on the chip were washed off by reacting 10 mM glycine-HCl, pH 1.5.

Compared with B1, B2 is lower in He/Con_3a: 91.9 relative binding, GpH7-A5/GpH7-B3/GpL16-k0 = 100 for the first, 45.6 relative binding, GpH7-A5/GpH7-B3/GpL16-k0 = 100 for the second.

First: B3
Second: B4
The He/Con_3a of the first is lower: 11.8 relative binding, GpH7-A5/GpH7-B3/GpL16-k0 = 100 for the first, 17.9 relative binding, GpH7-A5/GpH7-B3/GpL16-k0 = 100 for the second.

Compared with B5, B6 is lower in He/Con_3a: 65 relative binding, GpH7-A5/GpH7-B3/GpL16-k0 = 100 for the first, 21.5 relative binding, GpH7-A5/GpH7-B3/GpL16-k0 = 100 for the second.

Target: T1, FcγRIIb extracellular domain with …
Experiment: as above
Method: as §1

First: B1
Second: B2
The He/Con_2b of the first is higher: 379 relative binding, GpH7-A5/GpH7-B3/GpL16-k0 = 100 for the first, 104 relative binding, GpH7-A5/GpH7-B3/GpL16-k0 = 100 for the second.

Going from B3 to B4, the He/Con_2b rises from 37.9 relative binding, GpH7-A5/GpH7-B3/GpL16-k0 = 100 to 65.9 relative binding, GpH7-A5/GpH7-B3/GpL16-k0 = 100.

First: B5
Second: B6
The He/Con_2b of the first is higher: 218 relative binding, GpH7-A5/GpH7-B3/GpL16-k0 = 100 for the first, 57.2 relative binding, GpH7-A5/GpH7-B3/GpL16-k0 = 100 for the second.

Target: T3, FcγRIIIa (human, UniProt P08637 17-208)
T3 construct: extracellular domain; also called 3a; FcgRIIIa
T3 sequence (P08637 17-208): as above
Experiment: SPR (Biacore), antibody captured on antigen-peptide chip, FcγR as analyte; binding of Ho Ab / binding of HoCon Ab GpH7-B3/GpL16-k0 x 100
Method: as §1

First: B7
Second: B8
The Ho/Con_3a of the first is lower: 119 relative to control = 100 for the first, 252 relative to control = 100 for the second.

First: B9
Second: B10
The Ho/Con_3a of the first is higher: 116 relative to control = 100 for the first, 110 relative to control = 100 for the second.

First: B11
Second: B12
The Ho/Con_3a of the first is higher: 114 relative to control = 100 for the first, 101 relative to control = 100 for the second.

Compared with B13, B14 is lower in Ho/Con_3a: 108 relative to control = 100 for the first, 102 relative to control = 100 for the second.

First: B15
Second: B16
The Ho/Con_3a of the first is lower: 108 relative to control = 100 for the first, 112 relative to control = 100 for the second.

Compared with B17, B18 is lower in Ho/Con_3a: 119 relative to control = 100 for the first, 107 relative to control = 100 for the second.

Compared with B19, B20 is higher in Ho/Con_3a: 103 relative to control = 100 for the first, 114 relative to control = 100 for the second.

First: B21
Second: B22
The Ho/Con_3a of the first is higher: 146 relative to control = 100 for the first, 105 relative to control = 100 for the second.
